Test results as given in patent US10383919B1, “Fragments of growth hormone binding protein” (The University of the Sciences, priority 2013, dated 2019).
Where no end group is shown, it is not given here.

Tests used:
[1] = cited from earlier work
rhGH = biological target: T1, rhGH (Homo sapiens, UniProt P01241); experiment: Equilibrium dialysis of GHBP peptides against rhGH (12-14 kDa MWCO membrane, MICRO-BCA read-out of lower chamber); format: binding; conditions: 1:1 ratio of rhGH:peptide; 0.25 mg/ml hGH stock; starting peptide 11.36 uM; 37° C., 24 hours
T1 construct: purchased Bresagen, Adelaide, Australia
Experimental: Equilibrium Dialysis: High Throughput Equilibrium Dialysis was performed using the 96-well Micro-Equilibrium Dialysis Device HTD (HTDialysis, LLC, CT, USA) according to the supplier's directions. The dialysis membrane was a SPECTRA/POR cellulose ester membrane. We tested a 3.5-5 kDa Molecular Weight Cut-off (MWCO) SPECTRA/POR membrane and a 12-14 kDa Molecular Weight Cut-off (MWCO) SPECTRA/POR membrane for their ability to allow peptide equilibration. Peptides were added to the upper chamber of each well of both a 3.5-5 kDa MWCO and a 12-14 kDa MWCO membrane and incubated at 37° C. with shaking at 200 rpm for 24 hours. Concentration of the peptide in the upper and lower chamber was assayed using MICRO-BCA Assay (Pierce) according to the supplier's directions.
We then confirmed the ability of the 12-14 kDa MWCO membrane to retain the hGH. Lyophilized recombinant hGH (Bresagen, Adelaide, Australia) was dissolved in phosphate-buffered saline (PBS) plus 0.05% sodium azide. One-hundred uL of a 25 mg/mL solution plus 100 uL of PBS were added to the upper chamber of the micro-dialysis device fitted with a 12-14 kDa MWCO membrane and incubated at 37° C. with shaking at 200 rpm for 24 hours. Concentration of hGH in the upper and lower chamber was assayed using MICRO-BCA Assay (Pierce) according to the supplier's directions. […] We used the 12-14 kDa MWCO membrane for our binding assays.
The upper chamber of each well received 100 uL of 0.25 mg/ml hGH and 100 uL of a 22.72 uM peptide solution. The lower chamber of each well received 100 uL of buffer and 100 uL of a 22.72 uM peptide solution. Thus, the starting concentration of peptide in both the upper and lower portion of each well was 11.36 uM. Plates were incubated at 37° C., with shaking at 200 rpm for 24 hours. […] The assay was configured with a 1:2 sample: working reagent ratio and incubated 45° C. for 4 hours and read in a spectrophotometer at 562 nm. Concentrations of peptide in the lower chamber were determined based on the equations generated by the standard curves for each peptide. […]

T1 sequence (P01241 27-217): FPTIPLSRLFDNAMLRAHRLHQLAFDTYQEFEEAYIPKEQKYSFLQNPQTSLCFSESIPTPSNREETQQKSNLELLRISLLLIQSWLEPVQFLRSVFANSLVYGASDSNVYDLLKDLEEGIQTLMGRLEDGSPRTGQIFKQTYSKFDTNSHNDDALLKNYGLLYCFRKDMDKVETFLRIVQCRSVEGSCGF

hGH: Human growth hormone (somatotropin or somatropin), a peptide hormone; recombinant hGH (Bresagen) was used in the binding assays
half-life in the bloodstream [1]: about fifteen

R-R-N-T-Q-E (RRNTQE; listed as Homo sapiens) [Peptide 3, hGHBP fragment Arginine-70 to Glutamate-76]
concentration of peptide in the lower chamber in the presence of rhGH (binding to rhGH) (rhGH): substantially reduced

S-P-E-R-E-T-F-S (SPERETFS; listed as Homo sapiens) [Peptide 1, hGHBP fragment Serine-40 to Serine-47]
concentration of peptide in the lower chamber in the presence of rhGH (binding to rhGH) (rhGH): substantially reduced

TSIWIPYCIGKCFSVDEIVQPD (TSIWIPYCIGKCFSVDEIVQPD; not fully specified; printed as Thr-Ser-Ile-Trp-Ile-Pro-Tyr-Cys-Ile-Gly-Lys-Cys-Phe-Ser-Val-Asp-Glu-Ile-Val-Gln-Pro-Asp; cysteine pairing not given here; listed as Homo sapiens) [Peptide 7, Peptide 5 & Peptide 6 bridged]
concentration of peptide in the lower chamber in the presence of rhGH (binding to rhGH) (rhGH): substantially reduced
